Laboratory results taken from US20210347894A1 (JIANGSU HANSOH PHARMACEUTICAL GROUP, published 2021).

B1: h1702 antibody (antibody, human IgG1, lambda)
heavy: not shown
light: QTVVTQEPSFSVSPGGTVTLTCGLSSGSVSTSHYPSWYQQTPGQAPRMLIYNTNTRSSGVPDRFSGSILGNKAALTITGAQADDESDYYCAIHVDRDIWVFGGGTKLTVLGQPKANPTVTLFPPSSEELQANKATLVCLISDFYPGAVTVAWKADGSPVKAGVETTKPSKQSNNKYAASSYLSLTPEQWKSHRSYSCQVTHEGSTVEKTVAPTECS
notes: Fully human IgG1/lambda full-length antibody from a phage library, expressed in HEK293E cells; also called B7H3 antibody h1702; anti-B7H3 antibody
B2: ADC-2 (antibody 1702DS conjugated with compound 5-A, formula FADC-2, n=7.24) (antibody, human IgG1, lambda)
heavy: not shown
light: DTVVTQEPSFSVSPGGTVTLTCGLSSGSVSTSHYPSWYQQTPGQAPRMLIYNTNTRSSGVPDRFSGSILGNKAALTITGAQADDESDYYCAIHVDRDIWVFGGGTKLTVLGQPKANPTVTLFPPSSEELQANKATLVCLISDFYPGAVTVAWKADGSPVKAGVETTKPSKQSNNKYAASSYLSLTPEQWKSHRSYSCQVTHEGSTVEKTVAPTEC
modifications: linker-drug compound 5-A (maleimide-GGFG-exatecan analog) coupled after TCEP reduction of the antibody's disulfide bonds; average n=7.24 per antibody; positions not given
notes: Antibody-drug conjugate; also called B7H3-ADC

What was measured:
[1] = molecular target: T1, human 4Ig-B7H3 antigen (SinoBiological cat#11188-H08H) (human, UniProt Q5ZPR3 29-461); assay: SPR (Biacore T200), antibody captured on Protein A chip, antigen flowed over, 1:1 Langmuir fit
T1 construct: Commercial product; The entry as printed is the B7H3 extracellular region (4Ig form) followed by a His-tag; also called Human 41g-B7H3; human B7H3 antigen for detection
T1 sequence: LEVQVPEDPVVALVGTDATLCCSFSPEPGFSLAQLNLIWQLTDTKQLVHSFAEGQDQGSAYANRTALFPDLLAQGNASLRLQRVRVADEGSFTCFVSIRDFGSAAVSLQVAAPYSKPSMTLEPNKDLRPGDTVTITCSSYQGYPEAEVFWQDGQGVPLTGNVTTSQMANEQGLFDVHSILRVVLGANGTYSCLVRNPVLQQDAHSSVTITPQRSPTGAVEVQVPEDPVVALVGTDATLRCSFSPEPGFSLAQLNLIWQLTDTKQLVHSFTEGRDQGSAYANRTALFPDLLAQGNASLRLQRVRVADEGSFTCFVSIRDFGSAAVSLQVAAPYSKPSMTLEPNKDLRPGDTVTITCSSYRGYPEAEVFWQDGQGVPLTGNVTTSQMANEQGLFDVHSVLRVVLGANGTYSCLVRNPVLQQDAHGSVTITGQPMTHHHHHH
From the text: (§1) A biosensor chip Protein A (Cat.#29127556, GE) was used to affinity capture a certain amount of antibody/ADC to be tested. Series diluted human 2Ig-B7H3 antigen (Cat.#1949-B3-050/CF, R&D) and human 4Ig-B7H3 antigen (Cat.#11188-H08H, Sino Biological) were flowed through the surface of the chip. Real-time reaction signal was detected by using Biacore instrument (Biacore T200, GE) to obtain the association and dissociation curves. After completion of each cycle of dissociation, the biochip was washed and regenerated with glycine-hydrochloric acid regeneration solution (pH 1.5) (Cat.# BR-1003-54, GE). The buffer used in the experiment was HBS-EP buffer solution (pH 7.4) (Cat.# BR-1001-88, GE).
(§2) The experimental data was fitted with BIAevaluation version 4.1 GE software in a (1:1) Langmuir model to obtain affinity values.

[2] = molecular target: T2, human 2Ig-B7H3 antigen (R&D cat#1949-B3-050/CF) (human, UniProt Q5ZPR3 29-245); assay: as above
T2 construct: Commercial product; The entry as printed is the B7H3 extracellular region (2Ig form) followed by a His-tag; also called human B7H3 antigen for screening and detection
T2 sequence: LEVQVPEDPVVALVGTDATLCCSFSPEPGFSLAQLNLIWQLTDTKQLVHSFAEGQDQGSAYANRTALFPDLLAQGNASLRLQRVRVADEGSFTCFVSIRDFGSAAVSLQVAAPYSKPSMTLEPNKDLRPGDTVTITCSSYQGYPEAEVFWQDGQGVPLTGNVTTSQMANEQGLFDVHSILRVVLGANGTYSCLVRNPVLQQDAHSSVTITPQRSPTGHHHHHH
From the text: as §1, §2

[3] = molecular target: T1, human 4Ig-B7H3 antigen (SinoBiological …); assay: SPR (Biacore T200), ADC captured on Protein A chip, antigen flowed over, 1:1 Langmuir fit
From the text: as §1, §2

Row | Binder | Kd [1] [nM] | Kd [2] [nM] | Kd [3] [nM]
1 | B1 | 8.55 | 797 | 
2 | B2 |  |  | 7.55
